B1: mRNA-splicing (parent)
chain: AGUUGCUGCUGGGAGCUCCAGCACAGUGAAAUGGACAGAAGGGCAGAGCAA

Variants of: B1
Assay: exon inclusion enrichment index; higher = more inclusion; WT1 exon 5 minigene, HEK293

| Variant | exon inclusion enrichment index |
| --- | --- |
| G5A C6G U7G C9A A29C A30U | 0.00149 |
| U4G G5C C6A U7A C9A U10A | 0.624 |
| G5A C6A G8U C9U | 0.0445 |
| G5A C6A G8U C9A | 0.0357 |
| G5A C6G U7G C9A A31U | 0.00278 |
| G5A C6G U7G C9A A31C | 0.00349 |
| G5A C6G U7G C9A A31G | 0.00766 |
| G5A C6A U7C C9A U10C | 2.47 |
| G5A C6G U7G C9A A20C G21U | 0.00104 |
| G5A C6G U7G C9A A20C G21A | 0.00106 |
| G5A C6G U7G C9A A20C G21C | 0.000907 |
| G5A C6G G8A C9A | 0.00571 |
| U4G U7C G8A U10C | 1.53 |
| U4G G5U C6G U7C U10C | 0.917 |
| G5A C6G U7G C9A A23U | 0.0012 |
| G5A C6G U7G C9A A23C | 0.00491 |
| G5A C6G U7G C9A A23G | 0.00235 |
| G5A C6G U7G C9A A30U A31G | 0.000854 |
| G5A C6G U7G C9A A30U A31U | 0.00264 |
| G5A C6G U7G C9A A30U A31C | 0.00225 |
| G5A C6A G8C C9U U10C | 0.618 |

| Variant | exon inclusion enrichment index |
| --- | --- |
| G5A C6G U7G C9A A31U U32G | 0.0027 |
| G5A C6G U7G C9A A31U U32A | 0.000867 |
| G5A C6G U7G C9A A31U U32C | 0.00119 |
| G5A C6G U7G C9A | 0.00225 |
| G5A C6G U7C G8A U10C | 0.446 |
| G5A C6G U7C G8A U10A | 0.00406 |
| U4G G5C C6G U7C U10C | 0.681 |
| G5A C6G U7G C9A A20U G21A | 0.000815 |
| G5A C6G U7G C9A A20U G21C | 0.00185 |
| G5A C6G U7G C9A A20U G21U | 0.000871 |
| G5A C6G U7C G8U C9A | 0.0245 |
| U4G G8U C9U | 0.193 |
| G5A C6G U7G C9A A20G | 0.00245 |
| G5A C6G U7G C9A A20U | 0.00146 |
| G5A C6G U7G C9A A20C | 0.00932 |
| G5A C6A U7A G8U C9A | 0.0639 |
| G5A C6G U7G C9A A23G C24U | 0.000891 |
| G5A C6G U7G C9A A23G C24A | 0.00158 |
| G5A C6G U7G C9A A23G C24G | 0.0109 |
| U4G G5C C6U G8C C9U U10C | 1.14 |
| G5A C6G U7G C9A A31C U32G | 0.00133 |

| Variant | exon inclusion enrichment index |
| --- | --- |
| G5A C6G U7G C9A A31C U32A | 0.00457 |
| G5A C6G U7G C9A A31C U32C | 0.00479 |
| U4G G5U U7C G8A U10C | 2.16 |
| G5A C6G U7G C9A A37C | 0.00434 |
| G5A C6G U7G C9A A25U | 0.00086 |
| G5A C6G U7G C9A A25G | 0.0133 |
| G5A C6G U7G C9A A25C | 0.0135 |
| G5A C6G U7A C9A | 0.0497 |
| G5A C6G U7C U10C | 0.952 |
| U4G G5A C6U U7A G8U C9A | 0.156 |
| G5A C6A U7G C9A | 0.107 |
| G5A C6A C9A | 0.239 |
| U4G G5C C6A U7C C9A U10C | 2.46 |
| U4G G5C C6G U7G C9A | 0.248 |
| U4G G5A G8U C9U | 0.369 |
| G5A C6G U7G C9A A25U G26C | 0.00304 |
| G5A C6G U7G C9A A25U G26U | 0.000854 |
| G5A C6G U7G C9A A25U G26A | 0.00161 |
| G5A C6G U7G C9A A25G G26C | 0.0234 |
| G5A C6G U7G C9A A25G G26A | 0.0192 |
| G5A C6G U7G C9A A25G G26U | 0.0111 |

| Variant | exon inclusion enrichment index |
| --- | --- |
| G5A C6G U7G C9A A23C C24A | 0.00335 |
| G5A C6G U7G C9A A23C C24U | 0.00192 |
| G5A C6G U7G C9A A23C C24G | 0.0142 |
| U4G G5U C6A U7C G8A U10A | 0.093 |
| G5A C6G U7G C9A A35U C36A | 0.001 |
| G5A C6G U7G C9A A35U C36G | 0.00119 |
| G5A C6G U7G C9A A35U C36U | 0.000752 |
| G5A C6A U7A C9A | 0.386 |
| G5A C6G U7G C9A A30G A31C | 0.00143 |
| G5A C6G U7G C9A A30G A31U | 0.000963 |
| G5A C6G U7G C9A A30G A31G | 0.00115 |
| G5A C6G C9A | 0.036 |
| G5A C6G U7G | 0.00284 |
| G5A C6G G8U C9U | 0.00331 |
| G5A C6G G8U C9A | 0.00122 |
| G5A C6A U7G G8A U10C | 1.08 |
| G5A C6A U7C G8A U10A | 0.063 |
| G5A C6A U7C G8A U10C | 1.79 |
| G5A C6G G8C C9U U10C | 0.0763 |
| G5A C6A G8A U10C | 0.811 |
| G5A C6A U7A C9A U10A | 0.214 |
